Here are results for one sequence from patent publication US12364734B2, “Methods of treating Alzheimers disease” (NUtech Ventures, priority 2020, dated 2025).

Data set [1] addresses T1, APP (Homo sapiens, UniProt P05067). Description: P2 effect on APP processing and amyloid formation (Western blot, immunofluorescence). It counts as cell-based.
Target sequence in this assay (P05067 18-770, species assumed): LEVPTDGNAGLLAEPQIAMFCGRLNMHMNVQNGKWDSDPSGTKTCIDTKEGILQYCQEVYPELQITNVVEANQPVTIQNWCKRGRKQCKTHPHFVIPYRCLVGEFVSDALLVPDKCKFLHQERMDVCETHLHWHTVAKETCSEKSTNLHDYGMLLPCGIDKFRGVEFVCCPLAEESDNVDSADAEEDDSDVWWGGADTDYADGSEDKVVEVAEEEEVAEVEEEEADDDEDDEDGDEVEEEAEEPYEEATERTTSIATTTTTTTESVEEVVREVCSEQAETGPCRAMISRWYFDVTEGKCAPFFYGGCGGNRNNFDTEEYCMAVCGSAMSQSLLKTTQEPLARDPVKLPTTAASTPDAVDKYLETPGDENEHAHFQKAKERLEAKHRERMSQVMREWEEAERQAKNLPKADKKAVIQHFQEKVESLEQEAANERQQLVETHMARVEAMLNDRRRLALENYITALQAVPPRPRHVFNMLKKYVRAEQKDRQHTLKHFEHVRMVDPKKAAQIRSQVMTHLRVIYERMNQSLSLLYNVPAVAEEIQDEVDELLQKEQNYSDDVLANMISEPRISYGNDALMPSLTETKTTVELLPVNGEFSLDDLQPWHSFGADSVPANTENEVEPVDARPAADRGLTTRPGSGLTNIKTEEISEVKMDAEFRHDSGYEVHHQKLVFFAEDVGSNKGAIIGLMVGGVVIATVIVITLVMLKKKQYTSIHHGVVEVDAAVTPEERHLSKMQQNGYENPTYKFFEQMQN
Data set [2] deals with T2, Epstein-Barr virus latent membrane protein 1 (LMP1) (Epstein-Barr virus, UniProt P03230).
T2 construct: expressed in transfected cells; host or cells: HEK293
T2 sequence (P03230 whole entry): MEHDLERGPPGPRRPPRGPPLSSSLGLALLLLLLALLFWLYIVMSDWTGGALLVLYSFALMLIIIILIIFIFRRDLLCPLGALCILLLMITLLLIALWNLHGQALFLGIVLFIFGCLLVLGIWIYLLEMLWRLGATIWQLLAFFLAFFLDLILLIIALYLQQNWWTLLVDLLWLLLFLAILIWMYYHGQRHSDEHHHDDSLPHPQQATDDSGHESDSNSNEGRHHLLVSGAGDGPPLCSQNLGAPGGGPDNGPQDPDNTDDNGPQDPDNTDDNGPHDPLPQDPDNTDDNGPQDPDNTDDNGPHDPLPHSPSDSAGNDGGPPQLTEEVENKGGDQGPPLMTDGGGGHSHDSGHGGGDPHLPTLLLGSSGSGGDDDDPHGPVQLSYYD
Description: LMP1 expression in HEK293 cells co-transfected with P2 peptide (specificity control). It counts as cell-based. As to conditions: HEK293 co-transfected with LMP1 expression plasmid and P2 peptide with PULSin. The source says:
FIGS. 6A-6B: FIG. 6A. HEK293 cells were transfected with EBV LMP1 expression plasmid or vector control (pcDNA3). One day later, the cells were infected with or without ZIKV overnight as in FIG. 2a. Western blots were used for detection of LMP1 and tubulin simultaneously. The images in the same box indicate they were derived from the same gels. The identity of the proteins is as shown. FIG. 6B. HEK293 cells were co-transfected with different amounts of LMP1 expression plasmid and P2 peptide, or BSA protein ([…]) with PULSin reagents. One day later, the expression of APP and tubulin were examined simultaneously by Western Blot analyses. The identity of the proteins is as shown.
We suspected that the loop in the specific structure of ZIKV E protein was responsible for the potential interaction with APP (FIGS. 1A and 1B). A peptide (P2) derived from the potential binding site, the β-hairpin region, was synthesized with sequence optimization (FIG. 1C). Located in the core region of the ZIKV E protein and being hydrophobic, the eight amino acid stretch, EYRIMLSV, in the β-hairpin region of E protein was not included in the P2 sequence. Furthermore, the P2 peptide could potentially form a similar structure as in the native protein by including extra amino acids in the C-terminus (FIGS. 1B and 1C). […]

A short description of data set [3]: Water solubility of the peptide. It counts as physicochemical.
The target of data set [4] is T1, APP. Description: APP protein stability assay with cycloheximide (CHX) in HEK293 cells. The format is cell-based. Also noted: expressed in transfected cells; host or cells: HEK293. As to conditions: HEK293 co-transfected with APP plasmid plus P2 or BSA; CHX for one hour.
Target sequence in this assay (P05067 18-695 isoform P05067-4 limits assumed): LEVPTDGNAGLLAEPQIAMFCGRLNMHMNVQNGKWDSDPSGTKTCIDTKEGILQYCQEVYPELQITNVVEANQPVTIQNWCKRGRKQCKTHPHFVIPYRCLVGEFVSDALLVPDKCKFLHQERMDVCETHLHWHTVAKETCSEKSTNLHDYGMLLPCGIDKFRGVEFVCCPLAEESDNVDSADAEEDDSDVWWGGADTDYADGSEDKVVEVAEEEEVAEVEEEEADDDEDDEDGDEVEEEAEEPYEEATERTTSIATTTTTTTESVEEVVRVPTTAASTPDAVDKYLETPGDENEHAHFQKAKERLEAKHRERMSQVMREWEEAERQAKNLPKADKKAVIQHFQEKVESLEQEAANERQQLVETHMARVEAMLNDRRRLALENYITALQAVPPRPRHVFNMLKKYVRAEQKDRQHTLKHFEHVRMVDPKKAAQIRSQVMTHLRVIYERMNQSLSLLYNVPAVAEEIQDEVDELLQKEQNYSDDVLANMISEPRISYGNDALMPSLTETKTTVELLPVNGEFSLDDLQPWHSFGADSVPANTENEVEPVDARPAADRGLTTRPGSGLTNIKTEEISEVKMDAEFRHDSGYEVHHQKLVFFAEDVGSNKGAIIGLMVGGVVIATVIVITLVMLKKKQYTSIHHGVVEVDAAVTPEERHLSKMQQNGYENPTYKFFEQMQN
The target of data set [5] is T1, APP. Description: APP expression in HEK293 cells with P2 peptide (Western blot). The format is cell-based. On the set-up: expressed in transfected cells; host or cells: HEK293.
Target sequence in this assay (P05067 18-695 isoform P05067-4 limits assumed): as above

In the case of “HGSQHSGMIVNDTGHETDENRAKVEITPNSPRAEATLGGFGSLGL (listed as Zika virus) [P2, peptide derived from the β-hairpin region of ZIKV E protein, without EYRIMLSV stretch]”, in the data set with APP [1] (Example 4, FIG. 13), the APP metabolic processing result is listed as “block APP metabolic processing” and the “interaction with APP” value is “interacts with APP”. Further, the amyloid formation entry in the data set with APP [1] (Western blot (FIG. 13A) and immunofluorescence (FIG. 13B)) is given as “reduces amyloid formation”. Moreover, in data set [2], the LMP1 expression result is listed as “could not be enhanced”. Further, the water solubility entry in data set [3] is reported as “water-soluble”. Besides, the “mechanism of APP enhancement (APP protein stability)” value with APP [4] was “a similar mechanism to ZIKV was established”. In addition, the APP expression entry with APP [5] (HEK293 co-transfected with APP695 plasmid (0.5 μg) and P2 peptide (1 μg) with PULSin, compared with BSA control, one day later) was “could increase the expression of APP”. Also, the APP expression entry with APP [5] (treating cells directly with peptide (data not shown)) is recorded as “could not enhance APP expression”.
